Laboratory results from US20260373285 (published 2026).
Where two headings read alike, the source gives them in different places. Blank lines part the entries; values can stand above or below the binder they belong to.

Columns and labels:
human Trop-2 (His) [1] = target: T1, human Trop-2 (His) (human, UniProt P09758); experiment: SPR
T1 chain: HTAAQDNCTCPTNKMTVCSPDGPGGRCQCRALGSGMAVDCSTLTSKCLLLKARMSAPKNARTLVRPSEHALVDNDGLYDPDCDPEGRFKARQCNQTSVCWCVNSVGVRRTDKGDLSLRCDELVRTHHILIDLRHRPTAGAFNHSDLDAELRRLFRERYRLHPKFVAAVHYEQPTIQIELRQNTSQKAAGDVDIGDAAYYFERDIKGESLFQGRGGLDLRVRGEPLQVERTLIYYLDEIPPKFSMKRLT

human Trop-2 (His) [2] = target: T1, human Trop-2 (His); experiment: SPR
[3] = target: T2, human Trop-2 on MDA-MB-468 cells (human, UniProt P09758); experiment: FACS
T2 chain: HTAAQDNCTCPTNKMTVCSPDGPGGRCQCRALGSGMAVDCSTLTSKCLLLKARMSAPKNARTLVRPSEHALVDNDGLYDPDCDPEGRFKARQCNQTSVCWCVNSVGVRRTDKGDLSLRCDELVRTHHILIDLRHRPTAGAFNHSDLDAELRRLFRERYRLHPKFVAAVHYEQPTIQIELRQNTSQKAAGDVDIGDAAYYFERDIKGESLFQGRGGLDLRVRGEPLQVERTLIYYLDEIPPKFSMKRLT

human Trop-2 (His) [4] = target: T1, human Trop-2 (His); experiment: ELISA
human Trop-2 (His) [5] = target: T1, human Trop-2 (His); experiment: SPR
human Trop-2 (His) [6] = target: T1, human Trop-2 (His); experiment: SPR
human Trop-2 (His) [7] = target: T1, human Trop-2 (His); experiment: SPR
hPD-L1(ECD)-His = hPD-L1(ECD)-His (human, UniProt Q9NZQ7); experiment: SPR
Chain of hPD-L1(ECD)-His (Q9NZQ7 19-238): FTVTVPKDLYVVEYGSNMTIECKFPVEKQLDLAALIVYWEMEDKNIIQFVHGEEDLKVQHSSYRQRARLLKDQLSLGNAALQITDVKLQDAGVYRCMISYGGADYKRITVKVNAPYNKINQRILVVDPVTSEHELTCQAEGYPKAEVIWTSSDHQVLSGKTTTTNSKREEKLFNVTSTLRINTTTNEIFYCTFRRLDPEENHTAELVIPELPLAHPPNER

Kd (human Trop-2 (His) [1]): 0.859 nM
Kd (human Trop-2 (His) [2]): 0.859 nM
EC50 [3]: 0.151 µg/mL
EC50 (human Trop-2 (His) [4]): 0.027 µg/mL
B1: Sacituzumab (ALGA106A) (antibody, V domains shown)
VH: QVQLQQSGSELKKPGASVKVSCKASGYTFTNYGMNWVKQAPGQGLKWMGWINTYTGEPTYTDDFKGRFAFSLDTSVSTAYLQISSLKADDTAVYFCARGGFGSSYWYFDVWGQGSLVTVSS
VL: DIQLTQSPSSLSASVGDRVSITCKASQDVSIAVAWYQQKPGKAPKLLIYSASYRYTGVPDRFSGSGSGTDFTLTISSLQPEDFAVYYCQQHYITPLTFGAGTKVEIKR

Kd (human Trop-2 (His) [1]): 20.1 nM
Kd (human Trop-2 (His) [2]): 20.1 nM
B2: Trop-2-B-YC-82 (antibody, V domains shown)
VH: EVQVVESGGGLVQPGGSLRLSCATSGYIFSNSGMGWYRQAPGKQRELVAAISSGGTTHYADSVKGRFTISRDNAKSTVYLQMNSLKPEDTAVYYCNGDRYYSGTDVFGSWGQGTQVTVSS

Kd (human Trop-2 (His) [5]): 99.4 nM
B3: ALGA105M Trop-2 arm (antibody, V domains shown)
V domain 1: EVQVVESGGGLVQPGGSLRLSCATSGYIFSNSGMGWYRQAPGKQRELVAAISSGGTTHYADSVKGRFTISRDNSKNTVYLQMNSLRAEDTAVYYCNGDRYYSGTDVFGSWGQGTLVTVSS
V domain 2: EVQVVESGGGLVQPGGSLRLSCATSGYIFSNSGMGWYRQAPGKQRELVAAISSGGTTHYADSVKGRFTISRDNSKNTVYLQMNSLRAEDTAVYYCNGDRYYSGTDVFGSWGQGTLVTVSS

Kd (human Trop-2 (His) [6]): 68.9 nM
EC50 [3]: 0.279 µg/mL
B4: Trop-2-A-258hz5 (antibody, V domains shown)
VH: QVQLVESGGGLVQPGGSLRLSCAASDRTFSEYNADWFRQAPGKEREFVAAITWSGKNTRYADSVKGRFTVSRDNSKNTVYLQMNSLRPADTAVYYCATDRWWAAGNWDGVDYWGQGTLVTVSS

Kd (human Trop-2 (His) [5]): 2.22 nM
B5: ALGA105O Trop-2 arm (antibody, V domains shown)
V domain 1: EVQVVESGGGLVQPGGSLRLSCATSGYIFSNSGMGWYRQAPGKQRELVAAISSGGTTHYADSVKGRFTISRDNSKNTVYLQMNSLRAEDTAVYYCNGDRYYSGTDVFGSWGQGTLVTVSS
V domain 2: QVQLVESGGGLVQAGGSLRLSCAASDRTFSEYNADWFRQAPGKEREFVAAITWSGKNTRYADSVKGRFTVSRDNAKNTVYLQMNSLKPEDTAVYYCATDRWWAAGNWDGVDYWGKGTLVTVSS

Kd (human Trop-2 (His) [7]): 3.43 nM
Kd (human Trop-2 (His) [5]): 3.43 nM
B6: ALGA105X Trop-2 arm (antibody, V domains shown)
V domain 1: EVQVVESGGGLVQPGGSLRLSCATSGYIFSNSGMGWYRQAPGKQRELVAAISSGGTTHYADSVKGRFTISRDNSKNTVYLQMNSLRAEDTAVYYCNGDRYYSGTDVFGSWGQGTLVTVSS
V domain 2: QVQLVQSGGGLVQPGGSLRLSCAASDRTFSEYNADWFRQAPGKEREFVAAITWSGKNTRYADSVKGRFTVSRDNSKNTVYLQMNSLRAEDTAVYYCATDRWWAAGNWDGVDYWGQGTLVTVSS

Kd (human Trop-2 (His) [7]): 3.33 nM
B7: ALGA105X-ADC Trop-2 arm (antibody, V domains shown)
V domain 1: EVQVVESGGGLVQPGGSLRLSCATSGYIFSNSGMGWYRQAPGKQRELVAAISSGGTTHYADSVKGRFTISRDNSKNTVYLQMNSLRAEDTAVYYCNGDRYYSGTDVFGSWGQGTLVTVSS
V domain 2: QVQLVQSGGGLVQPGGSLRLSCAASDRTFSEYNADWFRQAPGKEREFVAAITWSGKNTRYADSVKGRFTVSRDNSKNTVYLQMNSLRAEDTAVYYCATDRWWAAGNWDGVDYWGQGTLVTVSS
modifications: exatecan drug-linker conjugate; full fusion SEQ69

Kd (human Trop-2 (His) [7]): 2.75 nM
Kd (human Trop-2 (His) [5]): 2.44 nM
B8: ALGA105S Trop-2 arm (antibody, V domains shown)
V domain 1: EVQVVESGGGLVQPGGSLRLSCATSGYIFSNSGMGWYRQAPGKQRELVAAISSGGTTHYADSVKGRFTISRDNSKNTVYLQMNSLRAEDTAVYYCNGDRYYSGTDVFGSWGQGTLVTVSS
V domain 2: QVQLVQSGGGLVQPGGSLRLSCAASDRTFSEYNADWFRQAPGKEREFVAAITWSGKNTRYADSVKGRFTVSRDNSKNTVYLQMNSLRAEDTAVYYCATDRWWAAGNWDGVDYWGQGTLVTVSS

Kd (human Trop-2 (His) [7]): 2.88 nM
B9: ALGA105S-ADC Trop-2 arm (antibody, V domains shown)
V domain 1: EVQVVESGGGLVQPGGSLRLSCATSGYIFSNSGMGWYRQAPGKQRELVAAISSGGTTHYADSVKGRFTISRDNSKNTVYLQMNSLRAEDTAVYYCNGDRYYSGTDVFGSWGQGTLVTVSS
V domain 2: QVQLVQSGGGLVQPGGSLRLSCAASDRTFSEYNADWFRQAPGKEREFVAAITWSGKNTRYADSVKGRFTVSRDNSKNTVYLQMNSLRAEDTAVYYCATDRWWAAGNWDGVDYWGQGTLVTVSS
modifications: exatecan drug-linker conjugate; full fusion SEQ67

Kd (human Trop-2 (His) [5]): 2.76 nM
B10: ALGA105T Trop-2 arm (antibody, V domains shown)
V domain 1: QVQLVQSGGGLVQPGGSLRLSCAASDRTFSEYNADWFRQAPGKEREFVAAITWSGKNTRYADSVKGRFTVSRDNSKNTVYLQMNSLRAEDTAVYYCATDRWWAAGNWDGVDYWGQGTLVTVSS
V domain 2: EVQVVESGGGLVQPGGSLRLSCATSGYIFSNSGMGWYRQAPGKQRELVAAISSGGTTHYADSVKGRFTISRDNSKNTVYLQMNSLRAEDTAVYYCNGDRYYSGTDVFGSWGQGTLVTVSS

Kd (human Trop-2 (His) [6]): 99.2 nM
EC50 [3]: 8.7 µg/mL
B11: Trop-2-A-258hz3 (antibody, V domains shown)
VH: QVQLVESGGGLVQPGGSLRLSCAASDRTFSEYNADWFRQAPGKEREFVAAITWSGKNTRYADSVKGRFTVSRDNSKNTVYLQMNSLRAEDTAVYYCATDRWWAAGNWSGVDFWGQGTLVTVSS

Kd (human Trop-2 (His) [6]): 74.7 nM
EC50 [3]: 0.227 µg/mL
B12: Trop-2-A-258hz7 (antibody, V domains shown)
VH: QVQLVESGGGLVQPGGSLRLSCAASDRTFSEYNADWFRQAPGKEREFVAAITWSGKNTRYADSVKGRFTVSRDNSKNTVYLQMNSLRAEDTAVYYCATDRWWAAGNWDGVDYWGQGTLVTVSS

Kd (human Trop-2 (His) [6]): 75.5 nM
EC50 [3]: 0.176 µg/mL
B13: Trop-2-A-258hz2 (antibody, V domains shown)
VH: QVQLVQSGGGLVQPGGSLRLSCAASDRTFSEYNADWFRQAPGKEREFVAAITWSGKNTRYADSVKGRFTVSRDNSKNTVYLQMNSLRAEDTAVYYCATDRWWAAGNWDGVDYWGQGTLVTVSS

Kd (hPD-L1(ECD)-His): 0.764 nM
B14: ALGA105S-ADC PD-L1 arm (antibody, V domains shown)
VH: EVQLVQSGAEVKKPGATVKISCKVSGFNIEDTYIYWVQQAPGKGLEWMGWIDPANYNTKYDPRFQDRVTITVDTSTDTAYMELSSLRSEDTAVYYCARGLRLLMDYWGQGTTVTVSS
VL: DIQLTQSPSFLSASVGDRVTITCKASQNVHTSLAWYQQKPGKSPKLLIYLASNRHTGVPSRFSGSGSGTEFTLTISSLQPEDFATYYCLQHWNYPLTFGQGTKLEIKR
modifications: exatecan drug-linker conjugate; full fusion SEQ67:SEQ68

Kd (hPD-L1(ECD)-His): 0.652 nM
B15: ALGA105X-ADC PD-L1 arm (antibody, V domains shown)
VH: EVQLVQSGAEVKKPGATVKISCKVSGFNIEDTYIYWVQQAPGKGLEWMGWIDPANYNTKYDPRFQDRVTITVDTSTDTAYMELSSLRSEDTAVYYCARGLRLLMDYWGQGTTVTVSS
VL: DIQLTQSPSFLSASVGDRVTITCKASQNVHTSLAWYQQKPGKSPKLLIYLASNRHTGVPSRFSGSGSGTEFTLTISSLQPEDFATYYCLQHWNYPLTFGQGTKLEIKR
modifications: exatecan drug-linker conjugate; full fusion SEQ69:SEQ70

Kd (human Trop-2 (His) [1]): 5.21 nM
EC50 (human Trop-2 (His) [4]): 0.0166 µg/mL
B16: Trop-2-B-16 (antibody, V domains shown)
VH: EVQVVESGGGLVQPGGSLRLSCTAPERIFSIYNMGWYRQAPGKEREWVAFLMEGGRIEYADSVKGRFTISRDNAKSTVYLQMNNLNAEDAAVYYCNAGGRSGYWGKGTLVTVSS

Kd (human Trop-2 (His) [5]): 0.668 nM
B17: ALGA105N Trop-2 arm (antibody, V domains shown)
V domain 1: EVQVVESGGGLVQPGGSLRLSCATSGYIFSNSGMGWYRQAPGKQRELVAAISSGGTTHYADSVKGRFTISRDNSKNTVYLQMNSLRAEDTAVYYCNGDRYYSGTDVFGSWGQGTLVTVSS
V domain 2: EVQVVESGGGLVQPGGSLRLSCTAPERIFSIYNMGWYRQAPGKEREWVAFLMEGGRIEYADSVKGRFTISRDNAKSTVYLQMNNLNAEDAAVYYCNAGGRSGYWGKGTLVTVSS
